This note sets out measurements from patent publication US5908761, “Galectin-8 and galectin-8-like proteins and DNA molecules coding therefor” (Yeda Research and Development Co. Ltd., dated 1999).

The series concerns the molecule itself. Put plainly: gel filtration over Superdex-200 HR FPLC column (self-association). As for the experimental part: Approximately 100 μg protein was loaded onto Superdex-200 HR (Pharmacia) FPLC column equilibrated with buffer A (PBS, 4 mM β-mercaptoethanol, 2 mM EDTA), and run for 60 min at 0.5 ml/min. O.D. was measured at 215 nm, and the column profile was obtained by running separately standard marks.
The primary structure of galectin-8 resembles that of galectin-4, namely, two homologous (38% identity) carbohydrate-binding regions (CRDs) linked by a short ≈30-amino acids linking peptide. This unique architecture is shared so far only by two galectins: rat galectin-4 (12) and its *C. elegans* homologue (13). Other galectin types, that contain a single CRD, exist and function as non-covalent dimers, which provides them with the potential to aggregate or agglutinate glycoconjugates. Since galectin-4 exists as a monomer, experiments were carried out to determine whether galectin-8 exists as a monomer or a dimer. […] Hepatic galectin-8 (FIG. 6) has a similar mobility on SDS-PAGE as its recombinant counterpart (FIG. 5).
A general note: SEC sorts molecules by how far they enter the pores of the column.

B1: tag-free recombinant galectin-8 (other)
chain: MLSLSNLQNIIYNPTIPYVSTITEQLKPGSLIVIRGHVPKDSERFQVDFQHGNSLKPRADVAFHFNPRFKRSNCIVCNTLTNEKWGWEEITHDMPFRKEKSFEIVIMVLKNKFHVAVNGKHILLYAHRINPEKIDTLGIFGKVNIHSIGFRFSSDLQSMETSTLGLTQISKENIQKSGKLHLSLPFEARLNASMGPGRTVVVKGEVNTNATSFNVDLVAGRSRDIALHLNPRLNVKAFVRNSFLQDAWGEEERNITCFPFSSGMYFEMIIYCDVREFKVAVNGVHSLEYKHRFKDLSSIDTLAVDGDIRLLDVRSW
For the protein B1, the binding result is recorded as “no binding”.
